We go through 46 substances from the Human Domainome abundance scans (Beltran et al. 2025).

± gives the uncertainty stated by the source.

This data set in a line: abundance fitness (aPCA) (normalised: wild type 0, dead -1); higher = more abundant; growth selection in yeast, the domain comes from the species named. The note with it: Homo sapiens.
With “Lipoamide acyltransferase component of branched-chain alpha-keto acid dehydrogenase complex, mitochondrial V177E, P11182”, the abundance fitness is -0.385 ± 0.049.
The result for “Lipoamide acyltransferase component of branched-chain alpha-keto acid dehydrogenase complex, mitochondrial V177F, P11182” reads -0.818 ± 0.076.
“Lipoamide acyltransferase component of branched-chain alpha-keto acid dehydrogenase complex, mitochondrial V177G, P11182” returned an abundance fitness of -0.289 ± 0.038.
In turn, “Lipoamide acyltransferase component of branched-chain alpha-keto acid dehydrogenase complex, mitochondrial V177H, P11182” came in with an abundance fitness of -0.547 ± 0.15.
In the case of “Lipoamide acyltransferase component of branched-chain alpha-keto acid dehydrogenase complex, mitochondrial V177I, P11182”, the abundance fitness was -0.139 ± 0.058.
As for “Lipoamide acyltransferase component of branched-chain alpha-keto acid dehydrogenase complex, mitochondrial V177L, P11182”, the abundance fitness was -0.321 ± 0.04.
For “Lipoamide acyltransferase component of branched-chain alpha-keto acid dehydrogenase complex, mitochondrial V177M, P11182” the value was -0.329 ± 0.078; for “Lipoamide acyltransferase component of branched-chain alpha-keto acid dehydrogenase complex, mitochondrial V177N, P11182”, -0.742 ± 0.26.
The result for “Lipoamide acyltransferase component of branched-chain alpha-keto acid dehydrogenase complex, mitochondrial V177P, P11182” reads -0.64 ± 0.08; that for “Lipoamide acyltransferase component of branched-chain alpha-keto acid dehydrogenase complex, mitochondrial V177R, P11182”, -0.802 ± 0.043.
The result for “Lipoamide acyltransferase component of branched-chain alpha-keto acid dehydrogenase complex, mitochondrial V177S, P11182” reads -0.255 ± 0.045; that for “Lipoamide acyltransferase component of branched-chain alpha-keto acid dehydrogenase complex, mitochondrial V177T, P11182”, -0.401 ± 0.06.
In turn, “Lipoamide acyltransferase component of branched-chain alpha-keto acid dehydrogenase complex, mitochondrial V177W, P11182” came in with an abundance fitness of -0.975 ± 0.14.
Take “Lipoamide acyltransferase component of branched-chain alpha-keto acid dehydrogenase complex, mitochondrial V191A, P11182”: the abundance fitness is -0.52 ± 0.058.
The result for “Lipoamide acyltransferase component of branched-chain alpha-keto acid dehydrogenase complex, mitochondrial V191C, P11182” reads -0.267 ± 0.053.
The substance “Lipoamide acyltransferase component of branched-chain alpha-keto acid dehydrogenase complex, mitochondrial V191D, P11182” showed an abundance fitness of -0.522 ± 0.092.
The substance “Lipoamide acyltransferase component of branched-chain alpha-keto acid dehydrogenase complex, mitochondrial V191E, P11182” came in with an abundance fitness of -0.562 ± 0.043.
With “Lipoamide acyltransferase component of branched-chain alpha-keto acid dehydrogenase complex, mitochondrial V191F, P11182”, the abundance fitness is -0.456 ± 0.054.
On to “Lipoamide acyltransferase component of branched-chain alpha-keto acid dehydrogenase complex, mitochondrial V191H, P11182”, for which the abundance fitness is -0.619 ± 0.12.
As for “Lipoamide acyltransferase component of branched-chain alpha-keto acid dehydrogenase complex, mitochondrial V191K, P11182”, the abundance fitness was -0.653 ± 0.045.
The substance “Lipoamide acyltransferase component of branched-chain alpha-keto acid dehydrogenase complex, mitochondrial V191L, P11182” displayed an abundance fitness of -0.117 ± 0.047.
In turn, “Lipoamide acyltransferase component of branched-chain alpha-keto acid dehydrogenase complex, mitochondrial V191M, P11182” displayed an abundance fitness of -0.075 ± 0.051.
The result for “Lipoamide acyltransferase component of branched-chain alpha-keto acid dehydrogenase complex, mitochondrial V191N, P11182” reads -0.699 ± 0.23; that for “Lipoamide acyltransferase component of branched-chain alpha-keto acid dehydrogenase complex, mitochondrial V191P, P11182”, -0.482 ± 0.044; that for “Lipoamide acyltransferase component of branched-chain alpha-keto acid dehydrogenase complex, mitochondrial V191Q, P11182”, -0.632 ± 0.061.
Take “Lipoamide acyltransferase component of branched-chain alpha-keto acid dehydrogenase complex, mitochondrial V191R, P11182”: the abundance fitness is -0.756 ± 0.045.
With “Lipoamide acyltransferase component of branched-chain alpha-keto acid dehydrogenase complex, mitochondrial V191S, P11182”, the abundance fitness was -0.593 ± 0.054.
Regarding “Lipoamide acyltransferase component of branched-chain alpha-keto acid dehydrogenase complex, mitochondrial V191T, P11182”, the abundance fitness was -0.696 ± 0.079.
The substance “Lipoamide acyltransferase component of branched-chain alpha-keto acid dehydrogenase complex, mitochondrial V191W, P11182” displayed an abundance fitness of -0.899 ± 0.064.
“Lipoamide acyltransferase component of branched-chain alpha-keto acid dehydrogenase complex, mitochondrial V191Y, P11182” had an abundance fitness of -0.772 ± 0.067.
In turn, “Lipoamide acyltransferase component of branched-chain alpha-keto acid dehydrogenase complex, mitochondrial V192A, P11182” had an abundance fitness of -0.009 ± 0.045.
For the substance “Lipoamide acyltransferase component of branched-chain alpha-keto acid dehydrogenase complex, mitochondrial V192C, P11182”, the abundance fitness was -0.017 ± 0.055.
For “Lipoamide acyltransferase component of branched-chain alpha-keto acid dehydrogenase complex, mitochondrial V192D, P11182” the value was -0.159 ± 0.12.
In the case of “Lipoamide acyltransferase component of branched-chain alpha-keto acid dehydrogenase complex, mitochondrial V192E, P11182”, the abundance fitness worked out at 0.023 ± 0.045.
In turn, “Lipoamide acyltransferase component of branched-chain alpha-keto acid dehydrogenase complex, mitochondrial V192F, P11182” came in with an abundance fitness of -0.31 ± 0.21.
Substance “Lipoamide acyltransferase component of branched-chain alpha-keto acid dehydrogenase complex, mitochondrial V192I, P11182” displayed an abundance fitness of -0.041 ± 0.086.
“Lipoamide acyltransferase component of branched-chain alpha-keto acid dehydrogenase complex, mitochondrial V192K, P11182” yielded an abundance fitness of 0.062 ± 0.046.
The result for “Lipoamide acyltransferase component of branched-chain alpha-keto acid dehydrogenase complex, mitochondrial V192L, P11182” reads -0.068 ± 0.044.
With “Lipoamide acyltransferase component of branched-chain alpha-keto acid dehydrogenase complex, mitochondrial V192M, P11182”, the abundance fitness is -0.066 ± 0.1.
Substance “Lipoamide acyltransferase component of branched-chain alpha-keto acid dehydrogenase complex, mitochondrial V192N, P11182” returned an abundance fitness of -0.073 ± 0.062.
For “Lipoamide acyltransferase component of branched-chain alpha-keto acid dehydrogenase complex, mitochondrial V192P, P11182” the value was 0.011 ± 0.05.
In turn, “Lipoamide acyltransferase component of branched-chain alpha-keto acid dehydrogenase complex, mitochondrial V192Q, P11182” came in with an abundance fitness of -0.023 ± 0.046.
For “Lipoamide acyltransferase component of branched-chain alpha-keto acid dehydrogenase complex, mitochondrial V192R, P11182” the value was -0.027 ± 0.038; for “Lipoamide acyltransferase component of branched-chain alpha-keto acid dehydrogenase complex, mitochondrial V192S, P11182”, -0.041 ± 0.053; for “Lipoamide acyltransferase component of branched-chain alpha-keto acid dehydrogenase complex, mitochondrial V192T, P11182”, 0.046 ± 0.052.
For the substance “Lipoamide acyltransferase component of branched-chain alpha-keto acid dehydrogenase complex, mitochondrial V192Y, P11182”, the abundance fitness was -0.141 ± 0.079.
